Measurements taken from paper PMC12567083, “N-terminal oligomerization drives HDAC4 nuclear condensation and neurodevelopmental dysfunction in Drosophila” (Open Biology, 2025).

B1: HDAC4^N-WT (N-terminal fragment of Drosophila HDAC4, Pro37 to Gln143) (domain or fragment, UniProt Q9VYF3 37-143, looked up)
chain: PHPAVDIDQQIMELKKSQELQKQRLINSFQEQSKQMELEHKLQLEHKYQFAVNSHGAFQELRNESMVTAAAAAVAQEQHRQQLHQQQQQHQQQQQQQQHQQQQQQQQ
notes: Drosophila HDAC4 (DmHDAC4), translation of nucleotides 461-4216 of NCBI NM_132640; residues Pro37-Gln143, the region that corresponds to Ala62-Gln153 of human HDAC4; codon optimised for E. coli; Cloned in pET-15B in frame with the N-terminal 6x His tag; Which UniProt isoform equals the translation of NM_132640 is not known to me; also called wild-type N-terminal HDAC4
B2: HDAC4^N-F65A (domain or fragment, Drosophila, UniProt Q9VYF3 37-143, looked up)
chain: PHPAVDIDQQIMELKKSQELQKQRLINSAQEQSKQMELEHKLQLEHKYQFAVNSHGAFQELRNESMVTAAAAAVAQEQHRQQLHQQQQQHQQQQQQQQHQQQQQQQQ
notes: Drosophila HDAC4 (DmHDAC4), translation of nucleotides 461-4216 of NCBI NM_132640; residues Pro37-Gln143 with Phe65Ala; Made by mutagenesis of HDAC4^N-WT in pET-15B
B3: HDAC4^N-S69F (domain or fragment, Drosophila, UniProt Q9VYF3 37-143, looked up)
chain: PHPAVDIDQQIMELKKSQELQKQRLINSFQEQFKQMELEHKLQLEHKYQFAVNSHGAFQELRNESMVTAAAAAVAQEQHRQQLHQQQQQHQQQQQQQQHQQQQQQQQ
notes: Drosophila HDAC4 (DmHDAC4), translation of nucleotides 461-4216 of NCBI NM_132640; residues Pro37-Gln143 with Ser69Phe; Made by mutagenesis of HDAC4^N-WT in pET-15B

Biological target: the molecule itself
Test: cross-linking; 0.5 mg/ml HDAC4^N in SEC buffer (30 mM HEPES pH 7.6, 150 mM NaCl) with 0.2 mM or 2.0 mM disuccinimidyl suberate (DSS), 30 min at room temperature, quenched with Tris; SDS-PAGE and colloidal Coomassie

Protein | binding result
B1 | binds
B2 | binds
B3 | binds
